Source: PMC6834639

Target: T1, WT Aβ (1–10)
T1 chain: DAEFRHDSGY
Experiment: native MS; IM-MS of oligomers of one Aβ fragment alone; Aβ (1–10) and Aβ (1–16) 600 µM, 10 mM NH4OAc; oligomers of many sizes seen, a printed size is the largest one
Conditions: remark: other sources report otherwise

stoichiometry N: 19
B1: WT Aβ (1–10) (peptide)
peptide: DAEFRHDSGY
